The values that follow come from patent US20230357420A1 (VILLARIS THERAPEUTICS, published 2023).

The target in one test is T1, Human CILP2 protein (human, UniProt Q8IUL8 21-1156, limits assumed).
T1 construct: also called cartilage intermediate layer protein 2
T1 sequence (looked up): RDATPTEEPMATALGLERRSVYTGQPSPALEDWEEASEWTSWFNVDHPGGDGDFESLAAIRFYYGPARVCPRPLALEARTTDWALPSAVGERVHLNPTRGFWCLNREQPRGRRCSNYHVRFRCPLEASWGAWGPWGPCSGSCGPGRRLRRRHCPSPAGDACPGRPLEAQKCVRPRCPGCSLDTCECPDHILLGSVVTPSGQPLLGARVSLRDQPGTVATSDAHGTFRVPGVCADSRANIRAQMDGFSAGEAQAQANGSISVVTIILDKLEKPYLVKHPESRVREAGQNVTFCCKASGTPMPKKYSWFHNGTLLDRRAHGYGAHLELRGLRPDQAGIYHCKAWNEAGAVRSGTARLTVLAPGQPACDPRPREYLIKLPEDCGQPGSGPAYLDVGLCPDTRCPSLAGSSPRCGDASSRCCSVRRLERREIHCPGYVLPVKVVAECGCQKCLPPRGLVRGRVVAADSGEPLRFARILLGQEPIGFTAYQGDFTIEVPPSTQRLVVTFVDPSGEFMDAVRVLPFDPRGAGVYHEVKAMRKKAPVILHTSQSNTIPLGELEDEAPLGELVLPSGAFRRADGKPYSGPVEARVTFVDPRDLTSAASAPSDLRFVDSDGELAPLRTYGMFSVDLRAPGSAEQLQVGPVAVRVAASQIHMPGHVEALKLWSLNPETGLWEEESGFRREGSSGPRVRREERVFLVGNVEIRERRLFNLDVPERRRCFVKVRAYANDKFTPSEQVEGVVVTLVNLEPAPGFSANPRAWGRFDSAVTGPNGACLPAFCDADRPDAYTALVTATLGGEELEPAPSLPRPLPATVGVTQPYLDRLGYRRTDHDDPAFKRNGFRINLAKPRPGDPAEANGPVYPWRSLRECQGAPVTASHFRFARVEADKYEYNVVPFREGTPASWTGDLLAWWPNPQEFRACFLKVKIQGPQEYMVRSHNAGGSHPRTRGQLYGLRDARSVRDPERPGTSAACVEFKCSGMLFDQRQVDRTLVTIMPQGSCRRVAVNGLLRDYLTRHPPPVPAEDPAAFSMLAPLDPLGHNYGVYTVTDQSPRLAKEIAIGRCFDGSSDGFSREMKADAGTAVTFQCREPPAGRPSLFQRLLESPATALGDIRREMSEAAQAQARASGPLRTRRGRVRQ
Nature of the test: BIACORE SPR, Fab at 62.5, 125, 250, 500 and 1000 nM on human CILP2 protein; Rmax. (SPR reads the build-up and loss of mass on a sensor chip optically.)

In test [1] the target is T2, Human CD122 His tagged (human, UniProt P14784 27-240).
T2 construct: also called hCD122; monomeric antigen; not shown: His tag
T2 sequence: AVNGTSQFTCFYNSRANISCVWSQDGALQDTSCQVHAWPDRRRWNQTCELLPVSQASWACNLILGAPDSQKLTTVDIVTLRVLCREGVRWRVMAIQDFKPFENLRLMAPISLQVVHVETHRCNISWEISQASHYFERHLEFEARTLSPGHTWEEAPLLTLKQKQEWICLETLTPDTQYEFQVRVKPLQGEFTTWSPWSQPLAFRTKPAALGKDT
Put plainly: Biacore SPR, Fab.

In another test the target is T3, Rhesus CD122 His tag (rhesus monkey, UniProt Q38J85 27-240 (cynomolgus entry)).
T3 construct: also called rhCD122; cynomolgus and/or rhesus monkey CD122 His tag; not shown: His tag
T3 sequence: T2 sequence with Q7R, A66T, T74A, L83M, V92M, E127K, L158M
Nature of the test: Biacore SPR, Fab.

Test [2] addresses T2, Human CD122 His tagged. Nature of the test: Biacore, Fab affinity and kinetics on hCD122.
In the next test the target is T4, Human neudesin protein (human, UniProt Q9UMX5 32-172).
T4 construct: also called NENF
T4 sequence (Q9UMX5 32-172 limits assumed): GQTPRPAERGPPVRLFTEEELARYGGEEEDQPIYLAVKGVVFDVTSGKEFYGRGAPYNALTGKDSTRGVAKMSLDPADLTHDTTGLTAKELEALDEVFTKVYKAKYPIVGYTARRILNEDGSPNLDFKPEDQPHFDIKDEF
Put plainly: BIACORE SPR, Fab at 62.5, 125, 250, 500 and 1000 nM on human neudesin protein; Rmax.

Changes are numbered by the printed parent chain.

B1: FAB18 (Fab, V domains shown)
VH: EVQLLESGGGLVQPGGSLRLSCAASGFSVTSYGVHWIRQAPGKGLEWLGVIWSGGSTDYNAAFISRLTISKDNSKNTVYFQMNSLRAEDTAVYYCARAGDYNYDGFAYWGQGTLVTVSS
VL: DIQMTQSPSSLSASVGDRVTITCQASSSVSFMYWYQQRPGKAPRLLIYDTSNLASGVPSRFSGSGSGTSYTFTISSLQPEDIATYYCQQWSTYPLTFGQGTKVEIK
notes: 06F11-V optimization variant; also called Fab version of MAB18
For B1, the binding result in the test with Human CILP2 protein and with Human neudesin protein was “no binding (tested: 1000 nM)” in each case. Also, the Kd with Human CD122 His tagged [1] amounted to 11.5 nM; in the test with Rhesus CD122 His tag, 8.55 nM; with Human CD122 His tagged [2] it was 11.5 nM. The dissociation rate constant (koff) with Human CD122 His tagged [2] is 0.0039 s⁻¹. In the test with Human CD122 His tagged [2], this molecule came in with an on-rate constant (kon) of 340000 M⁻¹ s⁻¹.

B2: FAB15 (Fab, V domains shown)
VH: B1 VH with Y101A
VL: B1 VL
notes: 06F11-V optimization variant; also called Fab version of MAB15
Consider B2, for which the binding result with Human CILP2 protein and with Human neudesin protein was “no binding (tested: 1000 nM)” each time. Further, the Kd in the test with Human CD122 His tagged [1] is 5.54 nM; with Rhesus CD122 His tag it was 4.47 nM; with Human CD122 His tagged [2] it was 5.5 nM. In addition, in the test with Human CD122 His tagged [2], the koff amounted to 0.0034 s⁻¹. Further, the kon in the test with Human CD122 His tagged [2] turned out to be 610000 M⁻¹ s⁻¹.

B3: FAB09 (Fab, V domains shown)
VH: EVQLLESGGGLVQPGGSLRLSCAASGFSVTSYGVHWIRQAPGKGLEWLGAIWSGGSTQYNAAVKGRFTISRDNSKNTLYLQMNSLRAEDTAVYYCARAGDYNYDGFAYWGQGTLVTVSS
VL: B1 VL
notes: 06F11-V optimization variant
With B3, the dissociation constant Kd was 72.5 nM in the test with Human CD122 His tagged [1] and 36.5 nM with Rhesus CD122 His tag.

B4: FAB13 (Fab, V domains shown)
VH: B1 VH with Y101A
VL: B1 VL with S91D, Q99G
notes: 06F11-V optimization variant
As for B4, the results for the Kd with Human CD122 His tagged [1] and with Rhesus CD122 His tag were 5.37 nM and 3.25 nM, respectively.

B5: FAB12 (Fab, V domains shown)
VH: B1 VH with S28T, G33A, I37V
VL: B1 VL
notes: 06F11-V optimization variant
Regarding B5, the equilibrium dissociation constant (Kd) with Human CD122 His tagged [1] was 21.8 nM; in the test with Rhesus CD122 His tag, 19.5 nM.

B6: FAB07 (Fab, V domains shown)
VH: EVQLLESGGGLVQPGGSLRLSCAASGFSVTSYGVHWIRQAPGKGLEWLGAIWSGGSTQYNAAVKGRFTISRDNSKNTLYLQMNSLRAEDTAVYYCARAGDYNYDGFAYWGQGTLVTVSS
VL: B1 VL with S91D, Q99G
notes: 06F11-V optimization variant
For B6, the results for the dissociation constant Kd in the test with Human CD122 His tagged [1] and in the test with Rhesus CD122 His tag were 30.1 nM and 16.3 nM, respectively.

B7: FAB17 (Fab, V domains shown)
VH: B1 VH
VL: B1 VL with S27Q, M32L
notes: 06F11-V optimization variant; also called Fab version of MAB17
B7: the binding result with Human CILP2 protein and in the test with Human neudesin protein was “no binding (tested: 1000 nM)” each time. In addition, the Kd with Human CD122 His tagged [1] was 10.7 nM; in the test with Rhesus CD122 His tag, 7.93 nM; with Human CD122 His tagged [2], 10.7 nM. In the test with Human CD122 His tagged [2], the off-rate (koff) turned out to be 0.0046 s⁻¹. The same molecule showed a kon with Human CD122 His tagged [2] of 430000 M⁻¹ s⁻¹.

B8: FAB06 (Fab, V domains shown)
VH: B1 VH with S28T, G33A, I37V, Y101A
VL: B1 VL
notes: 06F11-V optimization variant; also called Fab version of MAB06
With B8, the binding result with Human CILP2 protein and in the test with Human neudesin protein was “no binding (tested: 1000 nM)” throughout. For the same molecule, the dissociation constant (Kd) came out at 8.04 nM in the test with Human CD122 His tagged [1], 9.78 nM in the test with Rhesus CD122 His tag and 8 nM with Human CD122 His tagged [2]. In addition, the koff with Human CD122 His tagged [2] was determined as 0.0044 s⁻¹. This molecule showed a kon with Human CD122 His tagged [2] of 540000 M⁻¹ s⁻¹.

B9: FAB08 (Fab, V domains shown)
VH: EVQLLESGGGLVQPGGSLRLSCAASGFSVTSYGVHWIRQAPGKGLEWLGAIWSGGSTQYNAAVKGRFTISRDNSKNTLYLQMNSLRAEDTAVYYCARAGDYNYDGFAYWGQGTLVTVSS
VL: B1 VL with S27Q, M32L
notes: 06F11-V optimization variant
Regarding B9, the Kd amounted to 41.2 nM in the test with Human CD122 His tagged [1] and 30.7 nM with Rhesus CD122 His tag.

B10: FAB11 (Fab, V domains shown)
VH: B1 VH with S28T, G33A, I37V
VL: B1 VL with S27Q, M32L
notes: 06F11-V optimization variant
Regarding B10, the Kd in the test with Human CD122 His tagged [1] amounted to 17.7 nM; with Rhesus CD122 His tag it was 15.9 nM.

B11: FAB05 (Fab, V domains shown)
VH: B1 VH with S28T, G33A, I37V, Y101A
VL: B1 VL with S27Q, M32L
notes: 06F11-V optimization variant; also called Fab version of MAB05
In the case of B11, the binding result in the test with Human CILP2 protein and in the test with Human neudesin protein was “no binding (tested: 1000 nM)” throughout. The figures for the dissociation constant (Kd) in the test with Human CD122 His tagged [1], in the test with Rhesus CD122 His tag and with Human CD122 His tagged [2] were 10.2 nM, 8.86 nM and 10.2 nM, respectively. Further, the koff with Human CD122 His tagged [2] turned out to be 0.0058 s⁻¹. The on-rate (kon) in the test with Human CD122 His tagged [2] stood at 570000 M⁻¹ s⁻¹.

B12: FAB03 (Fab, V domains shown)
VH: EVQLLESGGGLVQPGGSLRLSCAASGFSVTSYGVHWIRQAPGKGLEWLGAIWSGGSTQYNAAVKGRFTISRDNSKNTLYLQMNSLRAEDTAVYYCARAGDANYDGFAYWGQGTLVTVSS
VL: B1 VL
notes: 06F11-V optimization variant
Turning to B12, the dissociation constant (Kd) with Human CD122 His tagged [1] was determined as 38.6 nM; with Rhesus CD122 His tag it was 20.6 nM.

B13: FAB14 (Fab, V domains shown)
VH: B1 VH with Y101A
VL: B1 VL with S27Q, M32L
notes: 06F11-V optimization variant; also called Fab version of MAB14
For the molecule B13, the binding result in the test with Human CILP2 protein and with Human neudesin protein was “no binding (tested: 1000 nM)” each time. Besides, the Kd with Human CD122 His tagged [1] was found to be 4.34 nM; with Rhesus CD122 His tag, 3.52 nM; in the test with Human CD122 His tagged [2], 4.3 nM. This molecule also yielded an off-rate constant (koff) with Human CD122 His tagged [2] of 0.0037 s⁻¹. The kon with Human CD122 His tagged [2] was 850000 M⁻¹ s⁻¹.

B14: FAB16 (Fab, V domains shown)
VH: B1 VH
VL: B1 VL with S91D, Q99G
notes: 06F11-V optimization variant
Consider B14, for which the Kd stood at 8.56 nM with Human CD122 His tagged [1] and 5.04 nM in the test with Rhesus CD122 His tag.

B15: FAB02 (Fab, V domains shown)
VH: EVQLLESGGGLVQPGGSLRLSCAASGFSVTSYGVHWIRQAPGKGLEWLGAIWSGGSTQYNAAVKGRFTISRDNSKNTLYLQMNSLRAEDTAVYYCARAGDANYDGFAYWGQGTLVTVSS
VL: B1 VL with S27Q, M32L
notes: 06F11-V optimization variant
As for B15, the dissociation constant (Kd) with Human CD122 His tagged [1] worked out at 50.6 nM; with Rhesus CD122 His tag, 22.5 nM.

B16: FAB10 (Fab, V domains shown)
VH: B1 VH with S28T, G33A, I37V
VL: B1 VL with S91D, Q99G
notes: 06F11-V optimization variant
Regarding B16, the Kd in the test with Rhesus CD122 His tag turned out to be 16.7 nM.

B17: FAB01 (Fab, V domains shown)
VH: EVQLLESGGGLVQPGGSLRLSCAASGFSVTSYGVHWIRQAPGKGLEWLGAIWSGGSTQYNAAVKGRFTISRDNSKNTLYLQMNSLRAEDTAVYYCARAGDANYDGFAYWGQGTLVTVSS
VL: B1 VL with S91D, Q99G
notes: 06F11-V optimization variant
Regarding B17, the figures for the dissociation constant Kd with Human CD122 His tagged [1] and with Rhesus CD122 His tag were 33.6 nM and 14.4 nM, respectively.

B18: FAB04 (Fab, V domains shown)
VH: B1 VH with S28T, G33A, I37V, Y101A
VL: B1 VL with S91D, Q99G
notes: 06F11-V optimization variant
Take B18: the Kd with Human CD122 His tagged [1] stood at 13.8 nM; with Rhesus CD122 His tag, 9.26 nM.

For orientation: Kd means the free concentration of one partner at which half of the binding sites on the other are occupied at equilibrium, for simple one-to-one binding. Usually koff stands for the rate constant with which the complex falls apart. A low value points to a long-lived complex. In general, kon refers to the second-order rate constant of association. A low value points to slower complex formation.
